# Data: patent US20060223059A1
# Like-named read-outs stand apart in the source and are kept apart here.
# T1: Boc-A-A-P-F-AMC
# T1 sequence: AAPF
# T2: Boc-V-P-R-AMC
# T2 sequence: VPR
# T3: Boc-A-A-P-F-AMC
# T3 chain: AAPF
# T4: Boc-V-P-R-AMC
# T4 chain: VPR
# B1: recombinant kallikrein 14 (without c-myc/His epitopes) (protein)
# chain: IIGGHTCTRSSQPWQAALLAGPRRRFLCGGALLSGQWVITAAHCGRPILQVALGKHNLRRWEATQQVLRVVRQVTHPNYNSRTHDNDLMLLQLQQPARIGRAVRPIEVTQACASPGTSCRVSGWGTISSPIARYPASLQCVNINISPDEVCQKAYPRTITPGMVCAGVPQGGKDSCQGDSGGPLVCRGQLQGLVSWGMERCALPGYPGVYTNLCKYRSWIEETMRDK
# B2: recombinant hK14^myc-His (protein)
# chain: EAEFIIGGHTCTRSSQPWQAALLAGPRRRFLCGGALLSGQWVITAAHCGRPILQVALGKHNLRRWEATQQVLRVVRQVTHPNYNSRTHDNDLMLLQLQQPARIGRAVRPIEVTQACASPGTSCRVSGWGTISSPIARYPASLQCVNINISPDEVCQKAYPRTITPGMVCAGVPQGGKDSCQGDSGGPLVCRGQLQGLVSWGMERCALPGYPGVYTNLCKYRSWIEETMRDK
# Assays:
# [1] = system: T1, Boc-A-A-P-F-AMC
# [2] = system: T2, Boc-V-P-R-AMC
# [3] = target: T3, Boc-A-A-P-F-AMC
# [4] = target: T4, Boc-V-P-R-AMC
molecule,measurement,setting,value
chymotrypsin,"hydrolysis of the fluorogenic peptide (release of AMC, arbitrary fluorescence counts)",[1],"Chymotrypsin, as expected, effectively cleaved the peptide substrate in a dose-dependent fashion"
same,"kinetic analysis, fluorescence counts at 30 sec intervals for 15 min",[1],Chymotrypsin activity increases with increasing concentrations and over time
trypsin,"hydrolysis of the fluorogenic peptide (release of AMC, arbitrary fluorescence counts)",[2],"Fluorescence counts increased, in a dose-dependent manner, with increased concentrations of each enzyme"
same,"kinetic analysis, fluorescence counts at 30 sec intervals for 15 min",[2],kallikrein 14- and trypsin-mediated hydrolysis of V-P-R-AMC increases over time
B1,"hydrolysis of the fluorogenic peptide (release of AMC, arbitrary fluorescence counts)",[3],neither recombinant kallikrein 14 nor kallikrein 14^myc-His hydrolyzed the peptide at any of the concentrations used
same,"kinetic analysis, fluorescence counts at 30 sec intervals for 15 min",[3],kallikrein 14 produces only background fluorescence counts (identical to the negative control containing substrate only) at all concentrations throughout the experiment
same,"hydrolysis of the fluorogenic peptide (release of AMC, arbitrary fluorescence counts)",[4],"recombinant kallikrein 14 is able to effectively cleave the trypsin substrate, V-P-R-AMC (SEQ ID NO. 30) at a similar efficiency as trypsin, the positive control"
same,"kinetic analysis, fluorescence counts at 30 sec intervals for 15 min",[4],kallikrein 14- and trypsin-mediated hydrolysis of V-P-R-AMC increases over time
B2,"hydrolysis of the fluorogenic peptide (release of AMC, arbitrary fluorescence counts)",[3],neither recombinant kallikrein 14 nor kallikrein 14^myc-His hydrolyzed the peptide at any of the concentrations used
same,"hydrolysis of the fluorogenic peptide (release of AMC, arbitrary fluorescence counts)",[4],kallikrein 14^myc-His was not able to hydrolyze V-P-R-AMC to a significant extent and is not considered to be active
